# Results: the supplement of paper PMC9112550, “Optimization of the antimicrobial peptide Bac7 by deep mutational scanning” (BMC Biology, 2022)
# Tested on: Escherichia coli TOP10
# Experiment: shrunken log2 fold change of peptide-encoding DNA abundance (4.5 h post-induction vs induction); higher = less antimicrobial activity (less host growth inhibition)
# Settings: time post-induction: 4.5 h; library: site-saturation at positions 5, 18, 19, 20
# 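Further: peptides expressed intracellularly from a pBAD plasmid library in pooled LB shake-flask culture, induced with 0.3% L-arabinose, DNA abundance read by NGS, three biological replicates, DESeq2 with apeglm shrinkage.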
row,Sequence,shrunken log2 fold change
1,RRIRHRPPRLPRPRPRPCVSPRP,-0.311
2,RRIRLRPPRLPRPRPRPNFHPRP,-0.301
3,RRIRYRPPRLPRPRPRPGHPPRP,-0.0687
4,RRIRSRPPRLPRPRPRPPWFPRP,0.238
5,RRIRQRPPRLPRPRPRPHLTPRP,-0.016
6,RRIRMRPPRLPRPRPRPATWPRP,0.515
7,RRIRRRPPRLPRPRPRPPFEPRP,0.61
8,RRIRDRPPRLPRPRPRPEKRPRP,-0.0167
9,RRIRLRPPRLPRPRPRPVHLPRP,-0.0235
10,RRIRFRPPRLPRPRPRPVDSPRP,0.0218
11,RRIRTRPPRLPRPRPRPGVYPRP,-0.116
12,RRIRMRPPRLPRPRPRPNDQPRP,0.0566
13,RRIRVRPPRLPRPRPRPDMAPRP,0.00912
14,RRIRTRPPRLPRPRPRPLRLPRP,0.219
15,RRIRTRPPRLPRPRPRPSTAPRP,0.181
16,RRIRLRPPRLPRPRPRPCWNPRP,-0.291
17,RRIRWRPPRLPRPRPRPMLQPRP,0.544
18,RRIRVRPPRLPRPRPRPMVLPRP,-0.19
19,RRIRTRPPRLPRPRPRPGDAPRP,0.206
20,RRIRCRPPRLPRPRPRPFYMPRP,-1.15
21,RRIRHRPPRLPRPRPRPCCNPRP,0.0722
22,RRIRWRPPRLPRPRPRPRKPPRP,0.188
23,RRIRCRPPRLPRPRPRPPKTPRP,-0.00862
24,RRIRARPPRLPRPRPRPGPHPRP,0.568
25,RRIRVRPPRLPRPRPRPMLVPRP,0.0916

row,Sequence,shrunken log2 fold change
1,RRIRRRPPRLPRPRPRPQKKPRP,-0.0695
2,RRIRLRPPRLPRPRPRPSATPRP,0.321
3,RRIRRRPPRLPRPRPRPSKCPRP,-0.47
4,RRIRSRPPRLPRPRPRPCFRPRP,-0.349
5,RRIRRRPPRLPRPRPRPNCGPRP,0.315
6,RRIRCRPPRLPRPRPRPHVLPRP,-0.172
7,RRIRRRPPRLPRPRPRPMIKPRP,0.0444
8,RRIRYRPPRLPRPRPRPQQQPRP,0.00548
9,RRIRPRPPRLPRPRPRPNIEPRP,-0.294
10,RRIRGRPPRLPRPRPRPVLMPRP,0.316
11,RRIRHRPPRLPRPRPRPCMMPRP,-0.0344
12,RRIRTRPPRLPRPRPRPPHHPRP,-0.149
13,RRIRNRPPRLPRPRPRPGDQPRP,0.0802
14,RRIRARPPRLPRPRPRPCDEPRP,0.085
15,RRIRNRPPRLPRPRPRPLWRPRP,0.179
16,RRIRYRPPRLPRPRPRPLIEPRP,-0.442
17,RRIRCRPPRLPRPRPRPIVMPRP,-0.235
18,RRIRCRPPRLPRPRPRPHTAPRP,-0.457
19,RRIRRRPPRLPRPRPRPCPAPRP,0.392
20,RRIRRRPPRLPRPRPRPRWAPRP,0.206
21,RRIRMRPPRLPRPRPRPMMKPRP,0.0962
22,RRIRERPPRLPRPRPRPCCAPRP,0.112
23,RRIRVRPPRLPRPRPRPQGCPRP,-0.0651
24,RRIRGRPPRLPRPRPRPNYKPRP,0.211
25,RRIRWRPPRLPRPRPRPGEDPRP,0.381

row,Sequence,shrunken log2 fold change
1,RRIRGRPPRLPRPRPRPSMQPRP,0.599
2,RRIRWRPPRLPRPRPRPTPYPRP,0.284
3,RRIRGRPPRLPRPRPRPQCIPRP,0.438
4,RRIRDRPPRLPRPRPRPDWVPRP,0.0881
5,RRIRERPPRLPRPRPRPIMAPRP,-1.15
6,RRIRCRPPRLPRPRPRPFPQPRP,-0.265
7,RRIRGRPPRLPRPRPRPAMMPRP,0.51
8,RRIRQRPPRLPRPRPRPPFLPRP,0.186
9,RRIRIRPPRLPRPRPRPKNHPRP,-0.622
10,RRIRDRPPRLPRPRPRPHQQPRP,-0.0346
11,RRIRHRPPRLPRPRPRPKLWPRP,0.392
12,RRIRGRPPRLPRPRPRPPMVPRP,0.277
13,RRIRCRPPRLPRPRPRPEDDPRP,0.159
14,RRIRYRPPRLPRPRPRPKCFPRP,-0.0925
15,RRIRRRPPRLPRPRPRPMEHPRP,0.131
16,RRIRVRPPRLPRPRPRPDITPRP,-0.305
17,RRIRERPPRLPRPRPRPTSWPRP,0.0831
18,RRIRFRPPRLPRPRPRPTPFPRP,0.266
19,RRIRERPPRLPRPRPRPVFVPRP,-0.178
20,RRIRFRPPRLPRPRPRPNKYPRP,-0.684
21,RRIRFRPPRLPRPRPRPQEEPRP,-0.0228
22,RRIRWRPPRLPRPRPRPWKEPRP,0.162
23,RRIRMRPPRLPRPRPRPLQQPRP,2.85
24,RRIRCRPPRLPRPRPRPHCFPRP,-0.429
25,RRIRSRPPRLPRPRPRPGWWPRP,4.72

row,Sequence,shrunken log2 fold change
1,RRIRRRPPRLPRPRPRPGADPRP,0.725
2,RRIRDRPPRLPRPRPRPGVVPRP,0.708
3,RRIRCRPPRLPRPRPRPYWPPRP,-0.158
4,RRIRSRPPRLPRPRPRPTVDPRP,0.16
5,RRIRFRPPRLPRPRPRPPVGPRP,0.641
6,RRIRQRPPRLPRPRPRPQFCPRP,-0.142
7,RRIRRRPPRLPRPRPRPAKCPRP,0.0405
8,RRIRHRPPRLPRPRPRPRVDPRP,0.0681
9,RRIRQRPPRLPRPRPRPWDSPRP,-0.198
10,RRIRGRPPRLPRPRPRPLMSPRP,0.271
11,RRIRGRPPRLPRPRPRPWPGPRP,0.265
12,RRIRFRPPRLPRPRPRPRMNPRP,-0.173
13,RRIRKRPPRLPRPRPRPITVPRP,0.0944
14,RRIRTRPPRLPRPRPRPIPNPRP,0.0695
15,RRIRARPPRLPRPRPRPSSYPRP,-0.342
16,RRIRFRPPRLPRPRPRPSFWPRP,-0.0521
17,RRIRHRPPRLPRPRPRPVYSPRP,-0.0167
18,RRIRNRPPRLPRPRPRPEHTPRP,-0.0129
19,RRIRMRPPRLPRPRPRPTLAPRP,1.35
20,RRIRFRPPRLPRPRPRPICGPRP,0.0198
21,RRIRQRPPRLPRPRPRPPQSPRP,0.671
22,RRIRARPPRLPRPRPRPNADPRP,0.825
23,RRIRIRPPRLPRPRPRPAQAPRP,0.2
24,RRIRSRPPRLPRPRPRPGQAPRP,0.0166
25,RRIRHRPPRLPRPRPRPGYEPRP,-0.454

row,Sequence,shrunken log2 fold change
1,RRIRARPPRLPRPRPRPDYRPRP,0.0573
2,RRIRVRPPRLPRPRPRPMTNPRP,-0.256
3,RRIRERPPRLPRPRPRPMGYPRP,-0.0965
4,RRIRMRPPRLPRPRPRPVHDPRP,0.0188
5,RRIRSRPPRLPRPRPRPWGSPRP,-0.0403
6,RRIRTRPPRLPRPRPRPLIKPRP,-1.06
7,RRIRVRPPRLPRPRPRPTYWPRP,0.0478
8,RRIRKRPPRLPRPRPRPTGHPRP,0.348
9,RRIRHRPPRLPRPRPRPQPMPRP,-0.109
10,RRIRDRPPRLPRPRPRPAGAPRP,0.509
11,RRIRPRPPRLPRPRPRPSEVPRP,-0.079
12,RRIRSRPPRLPRPRPRPQQGPRP,0.162
13,RRIRRRPPRLPRPRPRPWFSPRP,-0.0902
14,RRIRGRPPRLPRPRPRPNHAPRP,-0.0738
15,RRIRQRPPRLPRPRPRPYAAPRP,-0.175
16,RRIRGRPPRLPRPRPRPSKTPRP,0.558
17,RRIRKRPPRLPRPRPRPFDPPRP,-0.145
18,RRIRTRPPRLPRPRPRPVPNPRP,0.123
19,RRIRDRPPRLPRPRPRPMFSPRP,-0.142
20,RRIRYRPPRLPRPRPRPVMTPRP,-0.09
21,RRIRQRPPRLPRPRPRPMCHPRP,-0.136
22,RRIRLRPPRLPRPRPRPEMMPRP,2.57
23,RRIRSRPPRLPRPRPRPRPLPRP,0.171
24,RRIRFRPPRLPRPRPRPKWQPRP,0.000886
25,RRIRYRPPRLPRPRPRPMRSPRP,-0.0201

row,Sequence,shrunken log2 fold change
1,RRIRHRPPRLPRPRPRPCMNPRP,-0.0607
2,RRIRFRPPRLPRPRPRPFPFPRP,-0.177
3,RRIRMRPPRLPRPRPRPCNVPRP,0.0415
4,RRIRPRPPRLPRPRPRPLPKPRP,0.216
5,RRIRTRPPRLPRPRPRPHWCPRP,-0.00994
6,RRIRNRPPRLPRPRPRPQWLPRP,-0.317
7,RRIRTRPPRLPRPRPRPTVTPRP,0.0797
8,RRIRCRPPRLPRPRPRPRGHPRP,0.071
9,RRIRSRPPRLPRPRPRPPQDPRP,0.264
10,RRIRTRPPRLPRPRPRPVCEPRP,0.243
11,RRIRCRPPRLPRPRPRPCCAPRP,0.242
12,RRIRGRPPRLPRPRPRPSPFPRP,0.168
13,RRIRHRPPRLPRPRPRPQWKPRP,-0.0774
14,RRIRFRPPRLPRPRPRPIAEPRP,0.2
15,RRIRWRPPRLPRPRPRPSRAPRP,0.397
16,RRIRWRPPRLPRPRPRPWVYPRP,-0.384
17,RRIRDRPPRLPRPRPRPVLPPRP,0.0231
18,RRIRGRPPRLPRPRPRPEKMPRP,0.59
19,RRIRNRPPRLPRPRPRPFRNPRP,-0.515
20,RRIRRRPPRLPRPRPRPYYSPRP,-0.532
21,RRIRHRPPRLPRPRPRPFVYPRP,-0.186
22,RRIRCRPPRLPRPRPRPCMNPRP,-0.627
23,RRIRERPPRLPRPRPRPRTTPRP,0.00749
24,RRIRNRPPRLPRPRPRPQRCPRP,0.0227
25,RRIRHRPPRLPRPRPRPTIVPRP,-0.292
